Results on 4 molecules are retold here after publication PMC3267895.

Where two headings read alike, the source gives them in different places. Bounds are passed on as bounds.

The target of data set [1] is T1, NPH-II (vaccinia virus, UniProt P12927 1-676). Kind of data set: sucrose gradient centrifugation.
For data set [2], the target named is T1, NPH-II. Briefly: sucrose gradient centrifugation. This is another data set of the same source.
The target of data set [3] is T1, NPH-II. Briefly: smFRET.
In data set [4] the target is T1, NPH-II. Briefly: smFRET. The source holds these as a separate data set.
The target of data set [5] is T1, NPH-II. Briefly: smFRET. This is another data set of the same source.
Data set [6] has as its target T1, NPH-II. Kind of data set: sucrose gradient centrifugation. The source holds these as a separate data set.

Take CAGCAUCAAUGACAUCAGCAUCAA (ssRNA) [single-stranded RNA 24 nt (overhang)]: in the data set with NPH-II [1], the binding result is given as “binds”.

B1: blunt-end duplex RNA 19 bp (dsRNA)
RNA 1: AGCACCGUAAAGACGCAGC
RNA 2: GCUGCGUCUUUACGGUGCU
Turning to B1, the binding result with NPH-II [2] is recorded as “binds”.

B2: smFRET bipartite RNA with two extra 3' U on complementary strand (dsRNA)
RNA 1: AGCACCGUAAAGACGCAGCCAGCAUCAAUGACAUCAGCAUCAA
RNA 2: GCUGCGUCUUUACGGUGCUUU
modifications: 3' biotin on strand 2
Regarding B2, the equilibrium dissociation constant (Kd) (commonly a measure of binding affinity in units of concentration) with NPH-II [3] is below 0.01 nM; with NPH-II [4], 20.8 ± 7.5 nM; in the data set with NPH-II [5], 0.91 ± 0.12 nM.

B3: bipartite RNA, 19 bp duplex with 24 nt 3' overhang (dsRNA)
RNA 1: AGCACCGUAAAGACGCAGCCAGCAUCAAUGACAUCAGCAUCAA
RNA 2: GCUGCGUCUUUACGGUGCU
B3: in the data set with NPH-II [6], the binding result is on record as “binds”.
